Reference: patent CN116670173A (LAMCAP BIOTEST LTD, dated 2023)
Changes are numbered by the printed parent chain. One block for each binder: values may come before it.

Target: T1, 在MKN-45细胞表面表达的人CD47 (human, UniProt Q08722 19-323)
T1 construct: whole, on cells; MKN-45 cells also carry CEACAM5; also called hCD47; CD47 on MKN-45 cells
Assay: CD47/SIRPα blocking assay on MKN-45 cells, SIRPα-mouse Fc 50 ng/mL, imaging (CX5)

T1 sequence (Q08722 19-323): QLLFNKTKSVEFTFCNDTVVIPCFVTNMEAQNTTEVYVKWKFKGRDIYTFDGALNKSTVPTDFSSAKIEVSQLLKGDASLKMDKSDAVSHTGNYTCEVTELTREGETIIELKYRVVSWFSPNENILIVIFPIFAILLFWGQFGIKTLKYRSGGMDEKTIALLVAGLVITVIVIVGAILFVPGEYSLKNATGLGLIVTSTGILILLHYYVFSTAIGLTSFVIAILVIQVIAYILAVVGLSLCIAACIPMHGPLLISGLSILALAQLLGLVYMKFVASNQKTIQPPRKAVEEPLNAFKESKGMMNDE

B2: K2AC84 (bispecific antibody, human IgG1, kappa, lambda)
heavy: not shown
light 1: QSVLTQPPSVSAAPGQKVTISCSGSSSNIGIGLVSWYQQLPGTAPKLLIYNVNTRPSGIPDRFSGSKSGTSATLGITGLQTGDEADYYCGTWDFSYRVDFGGGTKLTVLGQPKAAPSVTLFPPSSEELQANKATLVCLISDFYPGAVTVAWKADSSPVKAGVETTTPSKQSNNKYAASSYLSLTPEQWKSHRSYSCQVTHEGSTVEKTVAPTECS
light 2: not shown
notes: kappa-lambda body, human IgG1; Common heavy chain and CD47 light chain tied by embodiment language only; also called CD47xCEACAM5双特异性抗体K2AC84; CEACAM5xCD47双特异性抗体
IC50: 0.04 nM

B4: K2AC100 (bispecific antibody, human IgG1, kappa, lambda)
heavy: not shown
light 1: B2 light 1 with I31Y, V52G, T54I
light 2: not shown
notes: kappa-lambda body, human IgG1; Common heavy chain and CD47 light chain tied by embodiment language only; also called CD47xCEACAM5双特异性抗体K2AC100; CEAxCD47双特异性抗体K2AC100
IC50: 0.09 nM

B5: K2AC22 (bispecific antibody, human IgG1, kappa, lambda)
heavy: not shown
light 1: B2 light 1 with G30A, I31N, L33I, N51F, V52D, T54L, R97G, V98I, D99V
light 2: not shown
notes: Comparator from WO2019234576; also called 现有技术的双特异性CEAxCD47抗体K2AC22
IC50: 1.2 nM

Further binders by falling IC50, results first:

IC50: 0.08 nM
B3: K2AC117 (bispecific antibody, human IgG1, kappa, lambda)
heavy: not shown
light 1: B2 light 1 with V52G, T54V
light 2: not shown
notes: kappa-lambda body, human IgG1; Common heavy chain and CD47 light chain tied by embodiment language only; also called CD47xCEACAM5双特异性抗体K2AC117; K2AC177 (as printed in some legends)

IC50: 0.07 nM
B1: K2AC82 (bispecific antibody)
heavy: not shown
light 1: QSVLTQPPSVSAAPGQKVTISCSGSSSNIGYGLVSWYQQLPGTAPKLLIYGINKRPSGIPDRFSGSKSGTSATLGITGLQTGDEADYYCGTWDFSYRVDFGGGTKLTVL
light 2: not shown
notes: kappa-lambda body, human IgG1, one arm for each target; Common heavy chain and CD47 light chain are tied to the antibodies of the invention by embodiment language only; also called CD47xCEACAM5双特异性抗体K2AC82; CEACAM5xCD47双特异性抗体; not shown: lambda constant domain; probably S

IC50: 0.05 nM
B6: K2AC91 (bispecific antibody, human IgG1, kappa, lambda)
heavy: not shown
light 1: B2 light 1 with N51T, T54N, W92F, R97G, V98I, D99V
light 2: not shown
notes: kappa-lambda body, human IgG1; Common heavy chain and CD47 light chain tied by embodiment language only; also called CD47xCEACAM5双特异性抗体K2AC91; CEACAM5xCD47双特异性抗体
